Assay results reported in patent US20160177307.
pKd: −log10 of the molar value.

Target: PDGF-BB (platelet-derived growth factor BB) (Homo sapiens) (UniProt P01127)
Test: filter
[1] = all Z are BndU, rest DNA, SB18T, 37 C
[2] = all P are NapdU, rest DNA, SB18T, 37 C

Sequence of PDGF-BB (platelet-derived growth factor BB) (Homo sapiens) (P01127 82-190): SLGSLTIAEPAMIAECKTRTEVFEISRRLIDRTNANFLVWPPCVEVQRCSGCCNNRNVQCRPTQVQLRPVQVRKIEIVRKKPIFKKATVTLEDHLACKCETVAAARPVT

ACACGCGTTTATAGCGTCAACCCGAGTGAACA [4149-8_19]
pKd [1]: 7.13

ACAGCATGTATGCACATCTAGAGGCTACCCAGTGAA [5169-4_14]
pKd [2]: 9.77

ACTACGTTACACGCGTTTATAGCGTCAACCCGAGTGAACA [4149-8_15]
pKd (Bn-dU): < 8.00

ATCTCTTACGACTACGTTACACGCGTTTATAGCGTC [4149-8_10]
pKd [1]: 10.30

ATCTCTTACGACTACGTTACACGCGTTTATAGCGTCAA [4149-8_9]
pKd [1]: 10.52

ATCTCTTACGACTACGTTACACGCGTTTATAGCGTCAACCCG [4149-8_7]
pKd [1]: 10.70

ATCTCTTACGACTACGTTACACGCGTTTATAGCGTCAACCCGAGTG [4149-8_5]
pKd [1]: 10.70

ATCTCTTACGACTACGTTACACGCGTTTATAGCGTCAACCCGAGTGAACA [4149-8_2]
pKd (all Z are BndU (5-(N-benzylcarboxamide)-2'-deoxyuridine), rest DNA, SB18T, 37 C, Zorbax partition): 10.30

CACAGCATGTATGCACATCT [5169-4_60]
pKd (C3 spacer at 2, NapdU at 9,11,13,19,21, C3 spacer walk): 7.57

CAGCATGTATGCACATCTAGAGGCTACCCAGTGAATGAGGA [5169-4_6]
pKd [2]: 7.17

CCTCGACAGCATGTATGCACATCTAGAGGCTACCCAGTGAATGAGGA [5169-4_4]
pKd (NapdU at P, SB18T, 37 C): 10.57

CGAAGCATGTATGCACATCT [5169-4_62]
pKd (C3 spacer at 4, NapdU at 9,11,13,19,21, C3 spacer walk): 7.38

CGACACATGTATGCACATCT [5169-4_64]
pKd (C3 spacer at 6, NapdU at 9,11,13,19,21, C3 spacer walk): 10.27

CGACAGATGTATGCACATCT [5169-4_65]
pKd (NapdU at P, C3 spacer at 7): 10.13

CGACAGCATGTATCACATCT [5169-4_72]
pKd (C3 spacer at 14, NapdU at 9,11,13,19,21, C3 spacer walk): 6.64

CGACAGCATGTATGACATCT [5169-4_73]
pKd (C3 spacer at 15, NapdU at 9,11,13,19,21, C3 spacer walk): 10.82

CGACAGCATGTATGCAATCT [5169-4_75]
pKd (NapdU at P, C3 spacer at 17): 9.85

CGACAGCATGTATGCACATCT [5169-4_33]
pKd (NapdU at P, 2'-OMe 1): 10.57

CGACAGCATGTATGCACATCT [5169-4_34]
pKd (NapdU at P, 2'-OMe 4): 10.48

CGACAGCATGTATGCACATCT [5169-4_35]
pKd (NapdU at P, 2'-OMe 7): 10.80

CGACAGCATGTATGCACATCT [5169-4_36]
pKd (NapdU at P, 2'-OMe 15): 10.55

CGACAGCATGTATGCACATCT [5169-4_37]
pKd (NapdU at P, 2'-OMe 17): 10.39

CGACAGCATGTATGCACATCT [5169-4_38]
pKd (NapdU at P, 2'-OMe 20): 10.66

CGACAGCATGTATGCACATCT [5169-4_39]
pKd (NapdU at P, 2'-OMe 2): 10.24

CGACAGCATGTATGCACATCT [5169-4_40]
pKd (NapdU at P, 2'-OMe 6): 10.62

CGACAGCATGTATGCACATCT [5169-4_41]
pKd (NapdU at P, 2'-OMe 10): 10.01

CGACAGCATGTATGCACATCT [5169-4_42]
pKd (2'-OMe G14, NapdU at 9,11,13,19,21, 2'-OMe substitution): 11.16

CGACAGCATGTATGCACATCT [5169-4_43]
pKd (NapdU at P, 2'-OMe 3): 9.80

CGACAGCATGTATGCACATCT [5169-4_44]
pKd (2'-OMe A5, NapdU at 9,11,13,19,21, 2'-OMe substitution): 9.28

CGACAGCATGTATGCACATCT [5169-4_45]
pKd (2'-OMe A8, NapdU at 9,11,13,19,21, 2'-OMe substitution): 9.03

CGACAGCATGTATGCACATCT [5169-4_46]
pKd (NapdU at P, 2'-OMe 12): 10.03

CGACAGCATGTATGCACATCT [5169-4_47]
pKd (NapdU at P, 2'-OMe 16): 10.80

CGACAGCATGTATGCACATCT [5169-4_48]
pKd (NapdU at P, 2'-OMe 18): 10.85

CGACAGCATGTATGCACATCT [5169-4_49]
pKd (NapdU at P, 2'-OMe 9): 9.28

CGACAGCATGTATGCACATCT [5169-4_50]
pKd (NapdU at P, 2'-OMe 11): 10.33

CGACAGCATGTATGCACATCT [5169-4_51]
pKd (NapdU at P, 2'-OMe 13): 9.49

CGACAGCATGTATGCACATCT [5169-4_52]
pKd (NapdU at P, 2'-OMe 19): 9.51

CGACAGCATGTATGCACATCT [5169-4_53]
pKd (NapdU at P, 2'-OMe 21): 10.66

CGACAGCATGTATGCACATCT [5169-4_54]
pKd (NapdU at 11,13,19,21, dT at 9, dT substitution): 7.36

CGACAGCATGTATGCACATCT [5169-4_55]
pKd (NapdU at 9,13,19,21, dT at 11, dT substitution): 8.11

CGACAGCATGTATGCACATCT [5169-4_57]
pKd (NapdU at 9,11,13,21, dT at 19, dT substitution): 6.92

CGACAGCATGTATGCACATCT [5169-4_80]
pKd (NapdU at P, 2'-OMe 7,16,18): 11.21

CGACAGCATGTATGCACATCT [5169-4_81]
pKd (NapdU at P, 2'-OMe 7,14,16,18): 11.31

CGACAGCATGTATGCACATCT [5169-4_82]
pKd (NapdU at 9,11,13,19, 2'-OMe at G6,C7,G14,A16,A18,C20 and 2'-OMe-NapU21, SB18T, 37 C): 11.80

CGACAGCATGTATGCACATCT [5169-4_83]
pKd (NapdU at P, 2'-OMe 1,6,7,14,15,16,18,20,21): 11.68

CGACAGCATGTATGCACATCT [5169-4_86]
pKd (NapdU at P, 2'-OMe 1,2,4,6,7,11,14-18,20,21): 10.19

CGACAGCATGTATGCACATCT [5169-4_92]
pKd (NapdU at P, 2'-OMe 1,7,15,16,18,20,21): 11.28

CGACAGCATGTATGCACATCT [5169-4_105]
pKd (NapdU at P, 2'-OMe 6,18,20): 11.21

CGACAGCATGTATGCACATCT [5169-4_106]
pKd (NapdU at P, 2'-OMe 1,18,20): 10.80

CGACAGCATGTATGCACATCT [5169-4_107]
pKd (NapdU at P, 2'-OMe 1,6,18): 10.89

CGACAGCATGTATGCACATCT [5169-4_108]
pKd (NapdU at P, 2'-OMe 1,6,14): 10.92

CGACAGCATGTATGCACATCT [5169-4_109]
pKd (NapdU at P, 2'-OMe 1,6,16): 10.96

CGACAGCATGTATGCACATCT [5169-4_110]
pKd (NapdU at P, 2'-OMe 1,14,16): 11.30

CGACAGCATGTATGCACATCT [5169-4_111]
pKd (NapdU at P, 2'-OMe 7,14,16): 11.32

CGACAGCATGTATGCACATCT [5169-4_113]
pKd (NapdU at P, 2'-OMe 7,16,21): 10.92

CGACAGCATGTATGCACATCT [5169-4_114]
pKd (NapdU at P, 2'-OMe 7,17,21): 10.42

CGACAGCATGTATGCACATCT [5169-4_115]
pKd (NapdU at P, 2'-OMe 4,7,21): 10.62

CGACAGCATGTATGCACATCT [5169-4_116]
pKd (NapdU at P, 2'-OMe 4,17,21): 10.03

CGACAGCATGTATGCACATCT [5169-4_117]
pKd (NapdU at P, 2'-OMe 4,12,17): 9.15

CGACAGCATGTATGCACATCT [5169-4_118]
pKd (NapdU at P, 2'-OMe 2,4,17): 9.25

CGACAGCATGTATGCACATCT [5169-4_123]
pKd (NapdU at P, 2'-OMe 1,20,21): 10.52

CGACAGCATGTATGCACATCT [5169-4_124]
pKd (NapdU at P, 2'-OMe 5,20,21): 9.22

CGACAGCATGTATGCACATCT [5169-4_125]
pKd (NapdU at P, 2'-OMe 1,5,20): 9.00

CGACAGCATGTATGCACATCT [5169-4_127]
pKd (NapdU at P, 2'-OMe 16,17,18): 11.00

CGACAGCATGTATGCACATCT [5169-4_128]
pKd (NapdU at P, 2'-OMe 13,14,15): 10.00

CGACAGCATGTATGCACATCT [5169-4_130]
pKd (NapdU at P, 2'-OMe 7,8,9): 8.35

CGACAGCATGTATGCACATCT [5169-4_131]
pKd (NapdU at P, 2'-OMe 4,5,6): 9.19

CGACAGCATGTATGCACATCT [5169-4_132]
pKd (NapdU at P, 2'-OMe 1,2,3): 9.38

CGACAGCATGTATGCACATCT [5169-4_150]
pKd (as 5169-4_146, PS 2, 3' inverted dT): 10.89

CGACAGCATGTATGCACATCT [5169-4_151]
pKd (as 5169-4_146 plus PS 3' of A3, 3'-idT): 11.22

CGACAGCATGTATGCACATCT [5169-4_152]
pKd (as 5169-4_146, PS 5, 3' inverted dT): 10.82

CGACAGCATGTATGCACATCT [5169-4_153]
pKd (as 5169-4_146, PS 8, 3' inverted dT): 10.89

CGACAGCATGTATGCACATCT [5169-4_154]
pKd (as 5169-4_146 plus PS 3' of P9, 3'-idT, 1.8-fold weaker than parent): 10.59

CGACAGCATGTATGCACATCT [5169-4_155]
pKd (as 5169-4_146, PS 10, 3' inverted dT): 11.16

CGACAGCATGTATGCACATCT [5169-4_156]
pKd (as 5169-4_146, PS 11, 3' inverted dT): 11.11

CGACAGCATGTATGCACATCT [5169-4_157]
pKd (as 5169-4_146, PS 12, 3' inverted dT): 10.74

CGACAGCATGTATGCACATCT [5169-4_158]
pKd (as 5169-4_146, PS 13, 3' inverted dT): 10.72

CGACAGCATGTATGCACATCT [5169-4_159]
pKd (as 5169-4_146, PS 19, 3' inverted dT): 10.82

CGACAGCATGTATGCACATCT [5169-4_172]
pKd (as 5169-4_146, PS 1, 3' inverted dT): 10.89

CGACAGCATGTATGCACATCT [5169-4_173]
pKd (as 5169-4_146, PS 4, 3' inverted dT): 11.04

CGACAGCATGTATGCACATCT [5169-4_175]
pKd (as 5169-4_146, PS 15, 3' inverted dT): 11.16

CGACAGCATGTATGCACATCT [5169-4_176]
pKd (as 5169-4_146, PS 17, 3' inverted dT): 10.85

CGACAGCATGTATGCACATCT [5169-4_177]
pKd (as 5169-4_146, PS 20, 3' inverted dT): 11.14

CGACAGCATGTATGCACATCT [5169-4_178]
pKd (as 5169-4_146, PS 6, 3' inverted dT): 10.96

CGACAGCATGTATGCACATCT [5169-4_179]
pKd (as 5169-4_146, PS 14, 3' inverted dT): 11.11

CGACAGCATGTATGCACATCT [5169-4_180]
pKd (as 5169-4_146, PS 16, 3' inverted dT): 10.70

CGACAGCATGTATGCACATCT [5169-4_181]
pKd (as 5169-4_146, PS 18, 3' inverted dT): 10.68

CGACAGCATGTATGCACATCT [5169-4_182]
pKd (as 5169-4_146 plus PS 3' of 9,10,11,12, 3'-idT): 10.41

CGACAGCATGTATGCACATCTA [5169-4_25]
pKd (NapdU at P): 10.70
